Patent publication US12564623B2, “Methods and compositions for treating cancer” (The University of Chicago, priority 2017, dated 2026)
“Also recorded” adds a separate entry of the source.

Assays:
CD95 [1] = target: T1, CD95 (Homo sapiens, UniProt P25445); conditions: Strand et al., Oncogene, 2004; cited from earlier work
T1 sequence (P25445 26-335): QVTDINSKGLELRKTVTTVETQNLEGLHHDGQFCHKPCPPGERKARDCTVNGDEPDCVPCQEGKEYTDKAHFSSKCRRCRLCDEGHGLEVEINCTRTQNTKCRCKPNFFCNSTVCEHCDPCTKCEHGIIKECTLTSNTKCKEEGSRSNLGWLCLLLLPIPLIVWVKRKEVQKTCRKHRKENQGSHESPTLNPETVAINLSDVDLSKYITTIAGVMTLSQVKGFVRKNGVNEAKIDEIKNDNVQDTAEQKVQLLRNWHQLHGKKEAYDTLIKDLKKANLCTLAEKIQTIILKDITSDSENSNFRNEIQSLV

CD95 [2] = target: T1, CD95; test: Recombinant CD95 degradation, SDS-PAGE and coomassie blue; type: biochemical; design: Recombinant proteins (1 μg) corresponding to full length CD95 (FL-CD95); conditions: purified CD95
Protocol: ELANE lowers CD95 levels in cancer cells and reduced CD95 levels are associated with apoptosis. (FIG. 8A) Recombinant proteins (1 μg) corresponding to full length CD95 (FL-CD95), N-terminal domain of CD95 (amino acids 1-173; N-CD95), or C-terminal domain of CD95 (amino acids 157-320; C-CD95) were inbuated with ELANE (0.05 μg) or vehicle (Veh) for 2 hrs at 37° C. Degradation was assessed by SDS-PAGE followed by coomassie blue staining. […] (FIG. 8C) Cancer cells were treated with ELANE (50 nM) for 1 hr, fixed in 10% formalin, and stained with N- or C-terminal specific anti-CD95 antibodies (green). Hoechst 33342 solution was used for nuclear staining (blue). Images were taken under 40×.
ELANE selectively cleaves the C-terminal domain of CD95. The CD95 pathway is essential for the survival of a wide range of cancer cells, but largely dispensable for normal cell survival (Adachi et al., Nat. Genet., 1995; Karray et al., J. Immunol., 2004). CD95 function can be modulated by proteolysis (Strand et al., Oncogene, 2004). To test CD95 involvement in ELANE mediated cell killing ELANE (0.05 μg) was incubated with 1 μg recombinant human C-terminal (aa. 157-320) or N-terminal (aa. 1-173) CD95 for 2 hrs at 37° C. Degradation was assessed by SDS-PAGE followed by staining with coomassie blue. C-terminal domain cleavage. N-terminal domain cleavage. Cancer cells were treated with ELANE (50 nM) for 1 hr, fixed in 10% formalin, and stained with N- or C-terminal specific anti-CD95 antibodies. Hoechst 33342 solution was used for nuclear staining. Images were taken under 40×. […] Mel888 cancer cells were treated with ELANE (50 nM) for various times, and CD95 degradation was assessed by western blot analysis with a C-terminal specific anti-CD95 antibody.
(§1) Other serine proteases cleave the C-terminal domain of CD95, and the ability to cleave the C-terminal domain is associated with cancer cell killing. (FIG. 12A) Full length recombinanat CD95 protein was incubated with various serine proteases (human ELANE (80 nM), PR3 (80 nM), CSTG (80 nM), PPE (80 nM), mouse ELANE (80 nM), rat ELANE (500 nM), GZMB (80 nM), or Trypsin (250 nM)), or other types of proteases (CTSC (80 nM); or MMP7 (80 nM), MMP9 (80 nM), CTSD (80 nM) not shown) at 37° C. for 2 hours. Degradation was assessed by SDS-PAGE followed by coomassie blue staining. (FIG. 12B) MDA-MB-231 cancer cells were incubated with various proteases for 24 hrs. Cell viability was assessed by Calcein AM staining.

MDA-MB-231 cells = test: Cancer cell killing, Calcein AM staining; type: cell-based, human
Protocol: Approach to identify the factor(s) mediating selective killing. A quantitative cancer cell killing assay was developed to track the bioactive factor(s). MDA-MB-231 cells were treated with various doses of PMN media and cell viability was assessed by Calcein AM live cells fluorescence staining. […] (FIG. 3B) PMN media was passed through a 0.22 μm filter, and protein concentration and killing activity on MDA-MB-231 cancer cells was measured in both pre- and post-filter solutions. […] ELANE and ECP levels in PMN media pre- and post-filtration were quantified by mass spectrometry (spectral counts).
To determine if ELANE and/or ECP were responsible, the inventors (1) immuno-depleted ELANE or ECP from PMN media; (2) treated cancer or normal cells with purified native ELANE or ECP from commercial sources. (FIG. 6A) ELANE or ECP were depleted from PMN media by immunoprecipitation; depletion was confirmed by western blotting. PMN media pre-depletion=Orig. and post-depletion=FT. Non-specific IgG was used as a control. (FIG. 6B) MDA-MB-231 cells or human monocyte-derived macrophages (HMDMs) were treated with purified native ELANE or ECP at various doses for 24h, and killing was assessed by Calcein AM staining. (FIG. 6C) MDA-MB-231 cells and HMDMs were treated with levels of ELANE (0.25 μg/mL) or ECP (0.05 μg/mL) that were present in the PMN media, alone or in combination for 24 hrs, and killing was examined by Calcein AM staining.
High doses of ECP or ELANE can kill cancer cells. The inventors sought to determine whether adding purified human ECP (Lee Biosolutions), human ELANE (Abcam), human DEFA1 (Abcam), human ANXA6 (R&D Systems) or human CASP3 (Abcam) individually could kill cancer cells without killing non-cancer cells. Increasing doses of each protein were added to MDA-MB-231 cells for 5h or human monocyte-derived macrophages (HMDMs) for 24 h and cell viability was determined by Calcein-AM.
ELANE and ECP synergize to selectively kill cancer cells. MDA-MB-231 and human monocyte-derived macrophages (HMDMs) were treated with levels of ELANE (0.25 μg/mL) or ECP (0.05 μg/mL) that were present in the PMN media, alone or in combination for 24 hrs. killing was examined by Calcein AM staining.
Combining chemotherapeutics and neutrophil conditioned media enhances the killing of human triple negative breast cancer cells. MDA-MB-231 cells were treated with neutrophil conditioned media (Neu-CM; 4 μg/mL), doxorubicin (DOX; 0.3 μM), or paclitaxel (PTX; 3 nM) for 4h, individually or in combination, and cell viability was assessed by Calcein-AM.
as §1
(FIG. 13A) MDA-MB-231 cancer cells were treated with various doses of purified native ELANE or purified native porcine pancreatic elastase (PPE) for 6 h, and killing was assessed by Calcein AM staining. (FIG. 13B). Purified native ELANE or purified native PPE was incubated with different concentrations of alpha-1-anti-trypsin (A1AT) for 15 mins. Catalytic activity was measured using a chromogenic substrate assay. Cancer cell killing capability was determined by treating MDA-MB-231 cancer cells with ELANE or PPE in the presence or absence of A1AT for 6h, followed by Calcein AM staining. (FIG. 13C) Catalytic activity was measured using a chromogenic substrate assay. […]

[3] = target: alpha-1-anti-trypsin (A1AT) (Homo sapiens, UniProt P01009); test: Inhibition of elastase activity and killing by A1AT or FBS; type: biochemical; conditions: 15 mins, killing 6 h
alpha-1-anti-trypsin (A1AT), sequence (P01009 25-418, species assumed): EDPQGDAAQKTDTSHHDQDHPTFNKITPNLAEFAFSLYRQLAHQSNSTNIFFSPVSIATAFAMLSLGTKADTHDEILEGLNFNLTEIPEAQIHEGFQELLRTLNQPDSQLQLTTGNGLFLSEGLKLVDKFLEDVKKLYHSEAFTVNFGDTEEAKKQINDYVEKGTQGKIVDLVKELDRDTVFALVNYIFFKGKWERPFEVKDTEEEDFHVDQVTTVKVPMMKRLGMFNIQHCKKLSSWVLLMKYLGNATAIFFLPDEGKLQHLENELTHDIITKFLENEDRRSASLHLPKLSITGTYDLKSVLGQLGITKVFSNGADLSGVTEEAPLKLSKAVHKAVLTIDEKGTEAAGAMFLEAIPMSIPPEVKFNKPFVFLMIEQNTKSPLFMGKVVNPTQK
Protocol: (FIG. 13A) MDA-MB-231 cancer cells were treated with various doses of purified native ELANE or purified native porcine pancreatic elastase (PPE) for 6 h, and killing was assessed by Calcein AM staining. (FIG. 13B). Purified native ELANE or purified native PPE was incubated with different concentrations of alpha-1-anti-trypsin (A1AT) for 15 mins. Catalytic activity was measured using a chromogenic substrate assay. Cancer cell killing capability was determined by treating MDA-MB-231 cancer cells with ELANE or PPE in the presence or absence of A1AT for 6h, followed by Calcein AM staining. (FIG. 13C) Catalytic activity was measured using a chromogenic substrate assay. Cancer cell killing capability was determined by treating MDA-MB-231 cancer cells with ELANE or PPE in the presence or absence of FBS for 6 h, followed by Calcein AM staining.
Elastase activity for purified native ELANE or purified native PPE at various dose were measured. It's corresponding killing ability was also tested on MDA-MB-231 cancer cells. Killing was assessed 6 hrs after treatment by Calcein AM staining. […] Killing was assessed 6 hrs after treatment by Calcein AM staining. […] Killing was assessed 6 hrs after treatment by Calcein AM staining.

Substance	cleavage of CD95 (CD95 [1])	cleavage of purified CD95 (CD95 [2])	cancer cell killing by proteases (MDA-MB-231 cells)	toxicity to cancer cells, ELANE versus PPE (MDA-MB-231 cells; various doses, 6 h)	susceptibility to inhibition by serine protease inhibitors [3]
MMP7: protease previously shown to cleave the extracellular N-terminal domain of CD95	cleave the extracellular N-terminal domain of CD95	–	–	–	–
porcine pancreatic elastase [PPE]	–	cleaved purified CD95 with an identical degradation pattern to ELANE	killed cancer cells	equally toxic to cancer cells	more resistant to inhibition by serine protease inhibitors; also recorded: less susceptibility to alpha 1 anti-trypsin (A1AT) or serum blocking
